The target in assay [1] is CD37 (Leukocyte Antigen CD37, Tetraspanin-26) on cells (human) (UniProt P11049). Put plainly: FACS, 5 ug/mL biotinylated control antibody + streptavidin-PE, BDCM cells (AML); background control. Background: A flow cytometer gives signals particle by particle.
For assay [2] the target is unchanged. Put plainly: FACS, 5 ug/mL biotinylated control antibody + streptavidin-PE, Mino cells (MCL); background control.
Assay [3] shares this target. Put plainly: FACS, 5 ug/mL biotinylated control antibody + streptavidin-PE, EoL-1 cells (AML); background control.
The target is the same in assay [4]. The assay can be described thus: FACS, 5 ug/mL biotinylated control antibody + streptavidin-PE, HL-60 cells (AML); background control.
Assay [5] has the same target. The assay can be described thus: FACS, 5 ug/mL biotinylated control antibody + streptavidin-PE, JVM-3 cells (CLL); background control.
Assay [6] has the same target. The assay can be described thus: FACS, 5 ug/mL biotinylated control antibody + streptavidin-PE, REC-1 cells (MCL); background control.
For assay [7] the target is unchanged. Put plainly: FACS, 5 ug/mL biotinylated control antibody + streptavidin-PE, THP-1 cells (AML); background control.
For assay [8] the target is unchanged. The assay can be described thus: FACS, 5 ug/mL biotinylated control antibody + streptavidin-PE, MOLT-4 cells (ALL); background control.
Assay [9] shares this target. The assay can be described thus: FACS, 5 ug/mL biotinylated control antibody + streptavidin-PE, RS4-11 cells (ALL); background control.
For assay [10] the target is unchanged. The assay can be described thus: FACS, 5 ug/mL biotinylated control antibody + streptavidin-PE, MOLM-13 cells (AML); background control.
For assay [11] the target is unchanged. Put plainly: FACS, 5 ug/mL biotinylated control antibody + streptavidin-PE, MV-4-11 cells (AML); background control.
Assay [12] has the same target. The assay can be described thus: FACS, 5 ug/mL biotinylated control antibody + streptavidin-PE, Kasumi-1 cells (AML); background control.
The target is the same in assay [13]. Put plainly: FACS, 5 ug/mL biotinylated control antibody + streptavidin-PE, Mino XCL cells (MCL); background control.
Assay [14] shares this target. Put plainly: FACS, 5 ug/mL biotinylated control antibody + streptavidin-PE, Raji cells (Burkitt's); background control.
Assay [15] shares this target. The assay can be described thus: FACS, 5 ug/mL biotinylated control antibody + streptavidin-PE, SU-DHL-4 cells (DLBCL); background control.
Assay [16] shares this target. Put plainly: FACS, 5 ug/mL biotinylated control antibody + streptavidin-PE, Daudi cells (Burkitt's); background control.
The target is the same in assay [17]. Put plainly: FACS, 5 ug/mL biotinylated control antibody + streptavidin-PE, Ramos cells (Burkitt's); background control.
The target is the same in assay [18]. The assay can be described thus: FACS, 5 ug/mL biotinylated control antibody + streptavidin-PE, WSU-DLCL-2 cells (DLBCL); background control.
Assay [19] shares this target. The assay can be described thus: FACS, 5 ug/mL biotinylated control antibody + streptavidin-PE, DOHH-2 cells (Follicular); background control.
Assay [20] has the same target. The assay can be described thus: FACS, 5 ug/mL biotinylated control antibody + streptavidin-PE, Ramos RR XCL cells (Burkitt's); background control.
The target is the same in assay [21]. The assay can be described thus: FACS, 5 ug/mL biotinylated control antibody + streptavidin-PE, KG-1 cells (AML); filing calls it high isotype control background binding.
Assay [22] shares this target. Put plainly: FACS, 5 ug/mL biotinylated control antibody + streptavidin-PE, Hel 92.1 cells (AML); filing calls it high isotype control background binding.
Assay [23] shares this target. Put plainly: FACS, 5 ug/mL biotinylated control antibody + streptavidin-PE, Granta-519 cells (MCL); filing calls it high isotype control background binding.

Chain of CD37 (Leukocyte Antigen CD37, Tetraspanin-26) on cells (human) (P11049 whole entry): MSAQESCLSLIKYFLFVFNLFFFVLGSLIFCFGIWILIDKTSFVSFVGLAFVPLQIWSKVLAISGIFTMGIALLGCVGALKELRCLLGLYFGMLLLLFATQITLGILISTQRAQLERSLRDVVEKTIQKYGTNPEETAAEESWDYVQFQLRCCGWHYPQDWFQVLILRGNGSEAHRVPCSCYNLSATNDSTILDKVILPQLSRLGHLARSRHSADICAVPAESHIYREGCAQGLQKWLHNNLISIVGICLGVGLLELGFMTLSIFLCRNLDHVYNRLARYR

In the case of “Isotype matched control antibody (biotinylated)”, the Geometric Mean (fluorescence) was 290 in [1]; 1480 in [2]; 189 in assay [3]; 967 in [4]; 1930 in assay [5]; 1010 in assay [6]. Also, the Geometric Mean (fluorescence) is 324 in assay [7]; 1310 in [8]; 155 in [9]; 240 in assay [10]; 247 in [11]; 188 in [12]. In addition, the Geometric Mean (fluorescence) amounted to 200 in assay [13]; 1760 in assay [14]; 1050 in assay [15]; 2040 in assay [16]; 1150 in assay [17]; 1200 in assay [18]. Also, the Geometric Mean (fluorescence) in assay [19] worked out at 840; in [20] it was 693; in [21], 8190; in assay [22], 4220; in [23] it was 15400.

(Values after US20160051694A1.)
